Drawing on US20220354938A1, this text covers iMFI and percentage of pMHC I complex presenting cells for 1 substance.

The assay deals with C2 epitope-peptide (…, SEQ ID NO:21) / human HLA-A2 MHC class I molecule complex on the cell surface (human; human CMV).

On to “TCR CMV-pp65-PE STAR™ multimer reagent (Altor Bioscience Corp., Miramar, Fla., U.S.)”, for which the iMFI was 10100 RFU and the percentage of pMHC I complex presenting cells turned out to be 35%.
